Source: PMC10716038, “Talin and kindlin use integrin tail allostery and direct binding to activate integrins” (Nature Structural & Molecular Biology, 2023)
No end group written: not given here.

Tests used:
Assay in all cases: MST; unlabelled protein titrated to 50-200 nM ATTO 488-labelled β-CT peptide, no third protein; 20 mM Tris pH 7.5, 200 mM NaCl, 1 mM TCEP, 0.05% Tween-20; Kd of individual titrations (in S0002 mean and sd, n = 2)
Settings in all cases: both partners purified
THD1 Δ401-405 = molecular target: T1, THD1 Δ401-405 (UniProt P26039 1-405, Δ401-405)
T1 construct: source: E. coli (DE3) Rosetta 2, purified (IMAC, SEC); not shown: His10-SUMO, N-terminal, cleaved

THD1 L400A = molecular target: T2, THD1 L400A (UniProt P26039 1-405, L400A)
T2 construct: talin-1 (TLN1) head domain, residues 1-405, L400A; source: E. coli (DE3) Rosetta 2, purified (IMAC, SEC); not shown: His10-SUMO, N-terminal, cleaved

THD1 K402A = molecular target: T3, THD1 K402A (UniProt P26039 1-405, K402A)
T3 construct: talin-1 (TLN1) head domain, residues 1-405, K402A; source: E. coli (DE3) Rosetta 2, purified (IMAC, SEC); not shown: His10-SUMO, N-terminal, cleaved

THD1 I398A = molecular target: T4, THD1 I398A (UniProt P26039 1-405, I398A)
T4 construct: talin-1 (TLN1) head domain, residues 1-405, I398A; source: E. coli (DE3) Rosetta 2, purified (IMAC, SEC); not shown: His10-SUMO, N-terminal, cleaved

[1] = molecular target: T5, talin-1 head domain (THD1) (UniProt P26039 1-405)
T5 construct: talin-1 (TLN1) head domain (THD), residues 1-405; murine TLN1 cDNA is named only for the cell lines; also called WT; source: E. coli (DE3) Rosetta 2, purified (IMAC, SEC); not shown: His10-SUMO, N-terminal, cleaved

THD1 K403E = molecular target: T6, THD1 K403E (UniProt P26039 1-405, K403E)
T6 construct: talin-1 (TLN1) head domain, residues 1-405, K403E; source: E. coli (DE3) Rosetta 2, purified (IMAC, SEC); not shown: His10-SUMO, N-terminal, cleaved

THD1 KKAA = molecular target: T7, THD1 KKAA (UniProt P26039 1-405, KKAA (KK402/403))
T7 construct: the sheet prints only 'KKAA'; source: E. coli (DE3) Rosetta 2, purified (IMAC, SEC); not shown: His10-SUMO, N-terminal, cleaved

THD1 I396A = molecular target: T8, THD1 I396A (UniProt P26039 1-405, I396A)
T8 construct: talin-1 (TLN1) head domain, residues 1-405, I396A; source: E. coli (DE3) Rosetta 2, purified (IMAC, SEC); not shown: His10-SUMO, N-terminal, cleaved

THD1 Y395A = molecular target: T9, THD1 Y395A (UniProt P26039 1-405, Y395A)
T9 construct: talin-1 (TLN1) head domain, residues 1-405, Y395A; source: E. coli (DE3) Rosetta 2, purified (IMAC, SEC); not shown: His10-SUMO, N-terminal, cleaved

THD1 K401A = molecular target: T10, THD1 K401A (UniProt P26039 1-405, K401A)
T10 construct: talin-1 (TLN1) head domain, residues 1-405, K401A; source: E. coli (DE3) Rosetta 2, purified (IMAC, SEC); not shown: His10-SUMO, N-terminal, cleaved
T10 sequence (P26039 1-405 K401A): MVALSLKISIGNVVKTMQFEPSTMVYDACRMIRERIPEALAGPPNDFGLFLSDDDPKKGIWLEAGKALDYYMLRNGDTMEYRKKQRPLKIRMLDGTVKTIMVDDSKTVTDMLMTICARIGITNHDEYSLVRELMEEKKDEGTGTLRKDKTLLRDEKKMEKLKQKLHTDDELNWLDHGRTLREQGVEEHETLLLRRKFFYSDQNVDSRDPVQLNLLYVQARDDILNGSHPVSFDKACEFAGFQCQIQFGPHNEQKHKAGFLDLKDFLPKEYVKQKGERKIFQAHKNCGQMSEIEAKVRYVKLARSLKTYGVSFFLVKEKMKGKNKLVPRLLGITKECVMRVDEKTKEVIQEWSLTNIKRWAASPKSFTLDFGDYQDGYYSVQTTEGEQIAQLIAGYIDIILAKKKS

T3 sequence (P26039 1-405 K402A): as the sequence (P26039 1-405 K401A) above, with A401K, K402A counted along it
T7 sequence (P26039 other isoform, or with tags, fused parts or gaps KKAA (KK402/403) | KKAA (KK402/403)): as the sequence (P26039 1-405 K401A) above, with A401K, K402A, K403A counted along it
T5 sequence (P26039 1-405): as the sequence (P26039 1-405 K401A) above, with A401K counted along it
T9 sequence (P26039 1-405 Y395A): as the sequence (P26039 1-405 K401A) above, with Y395A, A401K counted along it
T4 sequence (P26039 1-405 I398A): as the sequence (P26039 1-405 K401A) above, with I398A, A401K counted along it
T1 sequence (P26039 1-400, stated change not applied): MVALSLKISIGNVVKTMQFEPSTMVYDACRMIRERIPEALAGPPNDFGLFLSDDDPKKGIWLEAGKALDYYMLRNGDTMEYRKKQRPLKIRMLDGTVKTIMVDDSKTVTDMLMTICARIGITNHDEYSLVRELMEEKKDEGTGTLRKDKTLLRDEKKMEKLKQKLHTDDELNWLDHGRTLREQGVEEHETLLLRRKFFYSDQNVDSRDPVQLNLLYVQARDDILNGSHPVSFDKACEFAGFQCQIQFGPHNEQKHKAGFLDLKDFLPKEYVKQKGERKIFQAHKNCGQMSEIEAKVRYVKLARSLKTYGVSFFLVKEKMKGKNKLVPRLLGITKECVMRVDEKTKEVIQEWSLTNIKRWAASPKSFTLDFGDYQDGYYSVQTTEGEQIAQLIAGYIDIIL
T2 sequence (P26039 1-405 L400A): as the sequence (P26039 1-405 K401A) above, with L400A, A401K counted along it
T6 sequence (P26039 1-405 K403E): as the sequence (P26039 1-405 K401A) above, with A401K, K403E counted along it
T8 sequence (P26039 1-405 I396A): as the sequence (P26039 1-405 K401A) above, with I396A, A401K counted along it

B1: ATTO 488-labeled integrin β3 cytoplasmic tail (488–β3-CT) (peptide, UniProt O54890 741-787, looked up)
peptide: {ATTO 488}-KLLITIHDRKEFAKFEEERARAKWDTANNPLYKEATSTFTNITYRGT
notes: integrin β3 cytoplasmic tail (β3-CT); source: synthetic peptide (MPIB Core Facility)
Kd (THD1 Δ401-405): 250 µM | Kd (THD1 L400A): 190 µM | Kd (THD1 K402A): 45 µM | Kd (THD1 I398A): 141 µM | Kd [1]: 105 µM | Kd (THD1 K403E): 60.9 µM | Kd (THD1 KKAA): 62.1 µM | Kd (THD1 I396A): 579 µM | Kd (THD1 Y395A): 27.7 µM | Kd (THD1 K401A): 82.5 µM
